Measured values: patent US20210170043A1 (Novartis, published 2021)

T1: human DC-SIGN (full length, expressed on cells) (human, UniProt Q9NNX6 1-404)
T1 construct: Also used for DC-SIGN on human monocyte-derived cells and on cells of human DC-SIGN transgenic mice in the functional rows; also called CD209; human DC-SIGN CHO
T1 sequence: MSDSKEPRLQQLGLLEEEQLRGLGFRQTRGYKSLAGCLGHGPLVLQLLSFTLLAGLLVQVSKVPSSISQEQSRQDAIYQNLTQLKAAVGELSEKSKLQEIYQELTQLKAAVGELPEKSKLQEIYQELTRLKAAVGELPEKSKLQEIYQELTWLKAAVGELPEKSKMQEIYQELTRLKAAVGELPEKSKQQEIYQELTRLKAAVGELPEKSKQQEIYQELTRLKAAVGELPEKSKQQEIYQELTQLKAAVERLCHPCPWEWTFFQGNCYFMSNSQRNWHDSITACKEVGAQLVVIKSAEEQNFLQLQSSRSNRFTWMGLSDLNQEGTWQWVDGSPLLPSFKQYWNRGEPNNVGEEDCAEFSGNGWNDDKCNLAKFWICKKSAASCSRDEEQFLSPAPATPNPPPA

T2: cynomolgus monkey DC-SIGN (full length, expressed on CHO cells) (cynomolgus monkey, UniProt Q95J96 1-403 (rhesus entry))
T2 construct: also called cyno DC-SIGN; cyno DC-SIGN CHO
T2 sequence: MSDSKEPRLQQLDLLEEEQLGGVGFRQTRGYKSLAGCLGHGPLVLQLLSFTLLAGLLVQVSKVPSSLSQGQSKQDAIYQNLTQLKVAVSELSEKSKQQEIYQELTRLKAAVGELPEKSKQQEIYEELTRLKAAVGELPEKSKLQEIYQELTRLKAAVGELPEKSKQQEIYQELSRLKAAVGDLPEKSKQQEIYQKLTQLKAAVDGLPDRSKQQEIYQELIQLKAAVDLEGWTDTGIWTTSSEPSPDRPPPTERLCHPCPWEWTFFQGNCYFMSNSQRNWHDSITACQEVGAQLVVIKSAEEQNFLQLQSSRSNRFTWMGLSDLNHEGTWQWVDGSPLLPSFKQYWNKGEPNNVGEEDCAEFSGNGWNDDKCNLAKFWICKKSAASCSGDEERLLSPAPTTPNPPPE

T3: DC-SIGN Carbohydrate Recognition Domain (CRD), His-tagged (human, UniProt Q9NNX6 250-404)
T3 construct: also called DC-SIGN CRD; not shown: His tag used for capture
T3 sequence: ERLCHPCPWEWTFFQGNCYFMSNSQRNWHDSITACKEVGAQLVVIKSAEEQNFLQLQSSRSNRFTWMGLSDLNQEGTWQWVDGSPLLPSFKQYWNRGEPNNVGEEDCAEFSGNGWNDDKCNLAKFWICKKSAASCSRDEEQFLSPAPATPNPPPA


Legend:
[1] = target: T1, human DC-SIGN (full length, expressed …); experiment: flow cytometry, IgG titrated on human DC-SIGN K562 cells
[2] = target: T1, human DC-SIGN (full length, expressed …); experiment: flow cytometry, IgG titrated on human DC-SIGN CHO cells
[3] = target: T2, cynomolgus monkey DC-SIGN (full length, …); experiment: flow cytometry, IgG titrated on cyno DC-SIGN CHO cells
[4] = target: T3, DC-SIGN Carbohydrate Recognition Domain …; experiment: SPR (Biacore 8K), His-tagged DC-SIGN CRD captured at high density on chip, antibody as analyte
[5] = target: T3, DC-SIGN Carbohydrate Recognition Domain …; experiment: SPR (Biacore 8K), antibody captured on anti-human IgG Fc chip, DC-SIGN CRD as analyte

| EC50 [1] | EC50 [2] | EC50 [3] | Kd [4] | Kd [5] | Binder |
| --- | --- | --- | --- | --- | --- |
| 0.28 µg/mL | 0.23 µg/mL | 0.32 µg/mL |  |  | 2B2 Chimeric (antibody, V domains shown, Murine variable regions on human constant regions) VH: EVQLQQSGAELVRPGSSVKMSCKTSGYTFTNYGINWVKQRPGQGLEWIGYIYIGNDYTEYNERFKGKATLTSDTSSSTAHIQLNSLTSEDSAIYFCARLYYGSSLYSYAMDYWGQGTSVTVSS VL: DIVMTQAAPSVSVTPGESVSISCRSSKSLLHSSGNTYLYWFLQRPGQSPQLLISRMSNLASGVPDRFSGSGSGTAFTLRISRVEAEDVGVYYCMQHLEYPYTFGGGTKLELKR |
| 0.25 µg/mL | 0.1 µg/mL | 0.08 µg/mL | 10 nM | 830 nM | 914M09 Parental (antibody, human IgG1, kappa, V domains shown) VH: QVQLQESGPGLVKPSETLSLTCAVSGGSISSYYWNLIRQPAGKGLEWIGRIYTSGSTNYNPSLKSRVTMSVDTSKNQFSLKLSSVTAADTAVYYCARDSGGFYYYYGMDVWGQGTTVTVSS VL: DIQLTQSPSFLSASVGDRVTITCRASQGISSYLAWYQQKPGKAPKLLIYAASTLQGGVPSRFSGSGSGTEFTLTISSLQPEDFATYHCQQLNSYPWTFGQGTKVEIKR |
| 1.72 µg/mL | 0.21 µg/mL | 0.77 µg/mL | 16 nM | 1950 nM | 906C18 Parental (antibody, V domains shown) VH: EVQLVESGGGLVQPGGSLRLSCAASGFTFNNYWMNWVRQAPGKGLEWVANIRQDGSEKYYVDSVKGRFTISRDNAKNSLFLQMNSLRAEDTAVYYCARERAYCSTTSCPDYSNDYWGQGTLVTVSS VL: EIVMTQSPATLSVSPGERATLSCRASQTINNNLAWFQQKPGQTPRLLIYGASTGATGIPARFSGSGSGTEFTLTISSLQSEDFAVYYCQQYNNWPRGLTFGGGTKVEIKR |
| 0.26 µg/mL | 0.11 µg/mL | 0.19 µg/mL | 3.7 nM | 346 nM | 952G04 Parental (antibody, V domains shown) VH: QVTLRESGPALVKPTQTLTLTCTFSGFSLSTSGVSVTWIRQPPGKALEWLALIDWDDDKYYSTSLKTRLAISKDTSKNQVVLTMTNMDPVDTATYYCARTPSGSYGRYFDLWGRGTLVTVSS VL: DIQMTQSPSTLSASVGDRVTITCRASQSISTWLAWYQQKPGKAPKLLIYEASSLESGVPSRFSGSGSGTEFTLTISSLQPDDFATYYCQQYNSYWTFGQGTKVEIKR |
| 0.05 µg/mL | 0.07 µg/mL | 0.08 µg/mL | 1.7 nM | 174 nM | 958N05 Parental (antibody, V domains shown) VH: QVTLRESGPALVKPTQTLTLTCTFSGFSLSTSGISVSWIRQPPGKALEWLALIDWDDDKYYSTSLKTRLTISKDTSKNQVVLTMTNMDPVDTATYYCARTPSGSYGRYFDLWGRGTLVTVSS VL: DIQLTQSPSTLSASVGDRVTITCRASQSISNWLAWYQQKPGKAPKLLIYKASSLESGVPSRFTGSGSGTEFTLTISSLQPDDFATYYCQQYNSYWTFGQGTKVEIKR |
| 1.5 µg/mL | 0.26 µg/mL | 0.39 µg/mL | 5.8 nM | 523 nM | 550E03 Parental (antibody, V domains shown, also called 550Ee03) VH: QVTLRESGPALVKPTQTLTLTCTFSGFSLSTSGMSVSWIRQPPGKALEWLALIDWDDDKYYSTSLKTRLTISKDTSKNQVVLTMTNMDPVDTATYYCARMALRHAFDAWGQGTMVTVSS VL: QSVLTQPPSVSGAPGQRVTISCTGSSSNIGAGYDVHWYQQLPGTAPKLLIYVNSNRPSGVPDRFSGSKSGTSASLAITGLQAEDEADYYCQSYDSSLSGWVFGGGTKLTVLG |

Further lines, the binder ahead of its results:

| Binder | EC50 [1] | EC50 [2] | EC50 [3] | Kd [4] | Kd [5] |
| --- | --- | --- | --- | --- | --- |
| 2B2 (parental antibody) (antibody, V domains shown, also called antibody 2B2) VH: EVQLQQSGAELVRPGSSVKMSCKTSGYTFTNYGINWVKQRPGQGLEWIGYIYIGNDYTEYNERFKGKATLTSDTSSSTAHIQLNSLTSEDSAIYFCARLYYGSSLYSYAMDYWGQGTSVTVSS VL: DIVMTQAAPSVSVTPGESVSISCRSSKSLLHSSGNTYLYWFLQRPGQSPQLLISRMSNLASGVPDRFSGSGSGTAFTLRISRVEAEDVGVYYCMQHLEYPYTFGGGTKLELK |  |  |  | 0.5 nM | 32 nM |
| 960K03 Parental (antibody, V domains shown) VH: QVTLRESGPALVKPTQTLTLTCTFSGFSLSTGGMCVSWIRQPPGKALEWLALIDWDDDKYYSTSLKTRLTISKDTSKNQLVLTMTNMDPVDTATYYCARAHSGSYFDFWGQGTLVTVSS VL: DIQMTQSPSTLSASVGDRVTITCRASQRISNWLAWYQQKPGKAPKLLIYKASSLESGVPSRFSGSGSGTEFTLTISSLQPDDFATYYCQQFNSYWTFGQGTKVEIKR |  | 0.1 µg/mL | 0.02 µg/mL | 0.8 nM | 955 nM |
| 952P16 Parental (antibody, V domains shown) VH: QVTLRESGPALVKPTQTLTLTCTFSGFSLSTSGVSVSWIRQPPGKALEWLALIDWDDDKYYSTSLKTRLTISKDTSKNQVVLTMTNMDPVDTATYYCARTPSGSYGRYFDLWGRGTLVTVSS VL: not shown | 0.04 µg/mL | 0.06 µg/mL | 0.02 µg/mL | 3.8 nM | 395 nM |
| 956E02 Parental (antibody, human IgG1, kappa, V domains shown) VH: QVQLVQSGAEVKKPGASVKVSCKASGYTFTGYYINWVRQAPGQGLEWMGWINPNSGDTNYAQKFQGRVTMTRDPSISTAYMELSRLRSDDTAVYYCARENSGYGKLFDYWGQGTLVTVSS VL: not shown |  | 0.12 µg/mL | 0.13 µg/mL | 13 nM | 999 nM |
| 942K11 Parental (antibody, human IgG1, kappa, V domains shown) VH: QVQLQESGPGLVKPSETLSLTCTVSGGSISSYYWTWIRQPAGKGLEWIGRVFTSESTNYNPSLKNRVTMSVDTSKNQFSLRLNSVTAADTAMYYCARDRGTYLGGFDPWGQGTLVTVSS VL: not shown |  | 0.2 µg/mL | 11.6 µg/mL | 180 nM | 1260 nM |
| 2B2 Hz (antibody, V domains shown, also called humanized 2B2) VH: QVQLVQSGAEVKKPGASVKVSCKASGYTFTNYGINWVRQAPGQRLEWMGYIYIGNDYTEYNERFKGRVTITSDTSASTAYMELSSLRSEDTAVYYCARLYYGSSLYSYAMDYWGQGTTVTVSS VL: DIVMTQSPLSLPVTPGEPASISCRSSKSLLHSSGNTYLYWFLQKPGQSPQLLISRMSNLASGVPDRFSGSGSGTDFTLKISRVEAEDVGVYYCMQHLEYPYTFGGGTKVEIKR | 0.27 µg/mL | 0.06 µg/mL | 0.04 µg/mL |  |  |
